Measurements as given in paper PMC10092196 (Human Mutation, 2022).
Substitutions are numbered along the chain they refer to. In names and notes the source's numbering stands.

What was measured:
[1] = molecular target: the molecule itself; assay: SEC
[2] = molecular target: the molecule itself; assay: SEC with right-angle light scattering

B1: full-length wild-type human PUS3 protein (pseudouridine synthase 3) (enzyme, UniProt Q9BZE2 1-481, looked up)
chain: MAYNDTDRNQTEKLLKRVRELEQEVQRLKKEQAKNKEDSNIRENSAGAGKTKRAFDFSAHGRRHVALRIAYMGWGYQGFASQENTNNTIEEKLFEALTKTRLVESRQTSNYHRCGRTDKGVSAFGQVISLDLRSQFPRGRDSEDFNVKEEANAAAEEIRYTHILNRVLPPDIRILAWAPVEPSFSARFSCLERTYRYFFPRADLDIVTMDYAAQKYVGTHDFRNLCKMDVANGVINFQRTILSAQVQLVGQSPGEGRWQEPFQLCQFEVTGQAFLYHQVRCMMAILFLIGQGMEKPEIIDELLNIEKNPQKPQYSMAVEFPLVLYDCKFENVKWIYDQEAQEFNITHLQQLWANHAVKTHMLYSMLQGLDTVPVPCGIGPKMDGMTEWGNVKPSVIKQTSAFVEGVKMRTYKPLMDRPKCQGLESRIQHFVRRGRIEHPHLFHEEETKAKRDCNDTLEEENTNLETPTKRVCVDTEIKSII
stoichiometry N [1]: 2

B2: full-length human PUS3 D118A mutant (catalytic site) (enzyme, UniProt Q9BZE2 1-481, looked up)
chain: B1 chain with D118A
binding result [1]: binds

B3: full-length human PUS3 Y71C mutant (enzyme, UniProt Q9BZE2 1-481, looked up)
chain: B1 chain with Y71C
stoichiometry N [2]: 2
